The values below come from IntAct's records for PubMed 25512093.

The assay concerns the target bicd2_human BICD2 (UniProt Q8TD16).
UniProt Q8TD16, sequence (Q8TD16 whole entry): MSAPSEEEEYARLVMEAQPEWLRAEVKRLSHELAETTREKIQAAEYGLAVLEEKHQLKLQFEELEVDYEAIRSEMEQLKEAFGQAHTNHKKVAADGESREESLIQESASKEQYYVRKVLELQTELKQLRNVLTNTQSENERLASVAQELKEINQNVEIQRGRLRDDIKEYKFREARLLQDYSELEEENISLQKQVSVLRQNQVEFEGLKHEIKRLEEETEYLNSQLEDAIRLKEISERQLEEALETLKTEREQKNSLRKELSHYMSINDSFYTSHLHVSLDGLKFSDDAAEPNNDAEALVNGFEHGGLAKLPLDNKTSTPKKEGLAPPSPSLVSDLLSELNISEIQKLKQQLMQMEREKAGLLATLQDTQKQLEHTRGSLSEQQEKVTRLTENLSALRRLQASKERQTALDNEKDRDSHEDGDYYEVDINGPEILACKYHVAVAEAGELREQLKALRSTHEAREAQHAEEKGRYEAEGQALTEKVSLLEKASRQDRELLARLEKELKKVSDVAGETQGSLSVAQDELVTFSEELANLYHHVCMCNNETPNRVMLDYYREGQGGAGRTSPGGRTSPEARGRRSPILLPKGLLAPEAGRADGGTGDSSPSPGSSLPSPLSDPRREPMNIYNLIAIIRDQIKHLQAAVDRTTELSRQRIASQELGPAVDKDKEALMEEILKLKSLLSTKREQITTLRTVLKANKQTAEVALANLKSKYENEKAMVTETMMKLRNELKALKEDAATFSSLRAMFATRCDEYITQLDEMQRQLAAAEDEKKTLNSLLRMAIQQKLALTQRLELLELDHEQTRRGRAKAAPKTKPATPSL

For “Cytoplasmic dynein 1 heavy chain 1 (Homo sapiens), Q14204 R598C”, the “effect of a mutation on the interaction” value was “increasing interaction strength”.

For the substance “Cytoplasmic dynein 1 heavy chain 1 (Homo sapiens), Q14204 R264L”, the “effect of a mutation on the interaction” value is on record as “increasing interaction strength”.
